Source: publication PMC10115800, “Two assembly modes for SIN3 histone deacetylase complexes” (Cell Discovery, 2023)

B1: histone deacetylase Clr6 (enzyme, S. pombe, UniProt O59702 1-405, looked up)
chain: MGFGKKKVSYFYDEDVGNYHYGPQHPMKPHRVRMVHNLVVNYNLYEKLNVITPVRATRNDMTRCHTDEYIEFLWRVTPDTMEKFQPHQLKFNVGDDCPVFDGLYEFCSISAGGSIGAAQELNSGNAEIAINWAGGLHHAKKREASGFCYVNDIALAALELLKYHQRVLYIDIDVHHGDGVEEFFYTTDRVMTCSFHKFGEYFPGTGHIKDTGIGTGKNYAVNVPLRDGIDDESYESVFKPVISHIMQWFRPEAVILQCGTDSLAGDRLGCFNLSMKGHSMCVDFVKSFNLPMICVGGGGYTVRNVARVWTYETGLLAGEELDENLPYNDYLQYYGPDYKLNVLSNNMENHNTRQYLDSITSEIIENLRNLSFAPSVQMHKTPGDFTFENAEKQNIAKEEIMDERV
notes: Clr6, zinc-dependent class I histone deacetylase of S. pombe; two copies in SIN3L (Clr6, Clr6’), one in SIN3S; Endogenous protein; source: endogenous, S. pombe; co-purified with Pst3-3×Flag or Pst2-3×Flag (ANTI-FLAG M2 resin, glycerol gradient)
B2: Rxt3 (natural protein, S. pombe, UniProt O94707 1-351, looked up)
chain: MEEKTPENEQSKKTFDPKDSMKIEETSTNGSSQPSQPSNIKLSIGSILESSNDNGDPEYSENGMGNMNMNTLPMATSTPMSYTKQPSEAKYPNSVWERKGVSDQEENTSSVKRQKTLPTQSSGEEEAKYSHPGAPTATSADSISMESRPSNLSTSLSKTTSYPQFQVRQFVSPIISIDNSALEPFLNRYPASESLFPVTEYEYTPWLEFPLLYSSIGKFVRVTIDIKWLNAAINPRLCRREIWGTDVYTDDSDIATILAHCGCFSLLKPVRKIAVVDLYILPPLVHYKGTRKNQIESRSWSSRQDGISLKIKEVTWKPACASIFENSIHTLTLEERLQARLELSRSSTFKI
notes: Rxt3 of S. pombe, subunit of the Pst3 Lobe of the SIN3L complex; Endogenous protein; source: endogenous, S. pombe; co-purified with Pst3-3×Flag (ANTI-FLAG M2 resin, glycerol gradient)
B3: WD40 domain-containing protein Prw1 (natural protein, S. pombe, UniProt O14021 1-431, looked up)
chain: MAVSAVPHPSKQAQASEEGINQEKCINEEYKIWKKNSPFLYDLIITRALEWPCMSLQWYPEQQIFAEHGYTEQKMFLGVRADVGKYLLAVASIQLPYLNQTVPPTTMEGASAGDESSLRVNISNLYSHPESVCSAKLMPQDDSCVATVGNYHNDVLVFDKESFESYSSASESPLKPKYRLTKHTQPCTSVCWNFLSKGTLVSGSQDATLSCWDLNAYNESDSASVLKVHISSHEKQVSDVRFHYKHQDLLASVSYDQYLHVHDIRRPDASTKPARSVHAHSGPIHSVAFNPHNDFILATCSTDKTIALWDLRNLNQRLHTLEGHEDIVTKISFSPHEEPILASTSADRRTLVWDLSRIGEDQPAEEAQDGPPELLFMHGGHTSCTIDMDWCPNYNWTMATAAEDNILQIWTPSRSIWGNEQLEEDATAYLS
notes: Prw1 of S. pombe, homolog of S. cerevisiae Ume1 and human RBBP4/7; N-terminal NEE box and C-terminal WD40 domain; two copies in SIN3L (Prw1, Prw1’), one in SIN3S; Endogenous protein; source: endogenous, S. pombe; co-purified with Pst3-3×Flag or Pst2-3×Flag (ANTI-FLAG M2 resin, glycerol gradient)

How the values were obtained:
Settings in all cases: both partners purified
[1] = target: T1, Pst2 with C-terminal 3× Flag-tag (S. pombe, UniProt O13919 1-1075); assay: cryo-EM structure; endogenous SIN3S complex purified from the Pst2-3×Flag S. pombe strain, cross-linked with 1 mM BS3; 20 mM HEPES pH 7.4, 50 mM NaCl, 2 mM DTT; 2.9 Å
T1 construct: Pst2, Sin3 homolog of S. pombe, organising subunit of the SIN3S complex; all five domains (PAH1/2/3, HID, HCR) are resolved; also called Pst2-Flag; Sin3 isoform Pst2; source: endogenous locus tagged, S. pombe; purified (ANTI-FLAG M2 resin, glycerol gradient); not shown: 3× Flag, C-terminal, kept
T1 sequence (looked up): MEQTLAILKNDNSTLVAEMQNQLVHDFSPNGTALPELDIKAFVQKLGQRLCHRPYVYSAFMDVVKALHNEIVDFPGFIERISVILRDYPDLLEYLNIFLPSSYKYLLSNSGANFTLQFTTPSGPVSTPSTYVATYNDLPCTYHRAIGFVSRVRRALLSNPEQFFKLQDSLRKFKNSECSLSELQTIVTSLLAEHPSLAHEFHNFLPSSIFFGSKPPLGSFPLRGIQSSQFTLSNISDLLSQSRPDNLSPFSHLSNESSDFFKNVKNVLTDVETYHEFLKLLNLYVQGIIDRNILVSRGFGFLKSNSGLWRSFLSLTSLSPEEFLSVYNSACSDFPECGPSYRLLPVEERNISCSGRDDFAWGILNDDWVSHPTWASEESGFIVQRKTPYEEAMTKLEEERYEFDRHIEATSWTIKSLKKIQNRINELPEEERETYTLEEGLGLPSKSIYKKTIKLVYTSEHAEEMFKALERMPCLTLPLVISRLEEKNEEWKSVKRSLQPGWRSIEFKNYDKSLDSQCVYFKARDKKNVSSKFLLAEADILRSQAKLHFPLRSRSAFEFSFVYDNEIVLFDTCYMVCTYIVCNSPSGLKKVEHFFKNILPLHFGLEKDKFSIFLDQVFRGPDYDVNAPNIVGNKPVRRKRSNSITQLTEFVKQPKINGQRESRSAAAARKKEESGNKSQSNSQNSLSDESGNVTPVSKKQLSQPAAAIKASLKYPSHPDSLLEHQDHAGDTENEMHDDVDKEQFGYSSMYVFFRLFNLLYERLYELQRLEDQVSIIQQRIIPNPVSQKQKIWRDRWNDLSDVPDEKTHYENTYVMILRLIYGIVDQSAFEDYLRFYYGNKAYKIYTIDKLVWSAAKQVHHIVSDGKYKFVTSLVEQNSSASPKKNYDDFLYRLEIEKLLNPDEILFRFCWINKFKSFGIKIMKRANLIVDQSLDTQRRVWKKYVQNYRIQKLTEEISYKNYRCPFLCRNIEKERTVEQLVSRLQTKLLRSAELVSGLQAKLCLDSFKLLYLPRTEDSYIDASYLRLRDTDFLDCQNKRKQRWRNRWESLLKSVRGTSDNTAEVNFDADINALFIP

[2] = target: T2, Pst3 with C-terminal 3× Flag-tag (S. pombe, UniProt O74755 1-1154); assay: cryo-EM structure; endogenous SIN3L complex purified from the Pst3-3×Flag S. pombe strain, cross-linked with 1 mM BS3; 20 mM HEPES pH 7.4, 50 mM NaCl, 2 mM DTT; 3.2 Å
T2 construct: Pst3, Sin3 homolog of S. pombe, subunit of the SIN3L complex; PAH3, HID and HCR are resolved in the model; Endogenous protein; also called Pst3-Flag; Sin3 isoform Pst3; source: endogenous locus tagged, S. pombe; purified (ANTI-FLAG M2 resin, glycerol gradient); not shown: 3× Flag, C-terminal, kept
T2 sequence (looked up): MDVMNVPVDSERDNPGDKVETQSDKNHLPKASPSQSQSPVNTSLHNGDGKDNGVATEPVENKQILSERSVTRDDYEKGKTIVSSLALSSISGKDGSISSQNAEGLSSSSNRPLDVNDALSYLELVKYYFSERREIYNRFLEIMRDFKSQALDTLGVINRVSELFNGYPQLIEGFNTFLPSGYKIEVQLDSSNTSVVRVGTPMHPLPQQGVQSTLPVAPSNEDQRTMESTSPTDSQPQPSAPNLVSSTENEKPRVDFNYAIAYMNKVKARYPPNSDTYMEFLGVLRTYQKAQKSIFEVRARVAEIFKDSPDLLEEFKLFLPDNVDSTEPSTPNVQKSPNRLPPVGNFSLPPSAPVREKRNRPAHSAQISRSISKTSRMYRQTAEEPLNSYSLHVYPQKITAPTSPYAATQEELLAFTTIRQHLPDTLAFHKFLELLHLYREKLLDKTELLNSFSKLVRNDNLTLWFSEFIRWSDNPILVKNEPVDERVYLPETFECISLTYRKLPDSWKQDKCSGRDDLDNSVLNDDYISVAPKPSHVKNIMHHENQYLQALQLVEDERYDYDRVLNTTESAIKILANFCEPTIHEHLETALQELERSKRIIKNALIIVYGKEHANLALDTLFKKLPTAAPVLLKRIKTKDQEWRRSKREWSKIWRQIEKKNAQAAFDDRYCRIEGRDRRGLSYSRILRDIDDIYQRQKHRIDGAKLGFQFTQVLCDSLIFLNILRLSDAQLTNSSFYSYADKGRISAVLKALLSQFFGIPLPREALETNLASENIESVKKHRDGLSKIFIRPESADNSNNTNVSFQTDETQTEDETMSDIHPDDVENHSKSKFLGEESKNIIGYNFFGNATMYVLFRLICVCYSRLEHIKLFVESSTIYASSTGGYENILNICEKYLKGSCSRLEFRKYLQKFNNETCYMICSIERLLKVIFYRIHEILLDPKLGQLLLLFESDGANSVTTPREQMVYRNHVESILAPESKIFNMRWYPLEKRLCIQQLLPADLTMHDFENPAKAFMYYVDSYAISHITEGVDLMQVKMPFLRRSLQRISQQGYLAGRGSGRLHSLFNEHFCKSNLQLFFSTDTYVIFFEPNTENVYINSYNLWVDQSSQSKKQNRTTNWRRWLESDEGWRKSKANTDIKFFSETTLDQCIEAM

Pst1 = target: T3, Pst1 (S. pombe, UniProt Q09750 1-1522); assay: as above
T3 construct: Pst1, Sin3 homolog of S. pombe, endogenous subunit of the SIN3L complex; PAH3, HID and HCR are resolved in the model; Endogenous protein, untagged in the Pst3-Flag strain; only part of it is modelled in PDB 8I03; also called Sin3 isoform Pst1; Sin3 homolog Pst1; source: endogenous, S. pombe; co-purified with Pst3-3×Flag (ANTI-FLAG M2 resin, glycerol gradient)
T3 sequence (Q09750 whole entry, canonical isoform): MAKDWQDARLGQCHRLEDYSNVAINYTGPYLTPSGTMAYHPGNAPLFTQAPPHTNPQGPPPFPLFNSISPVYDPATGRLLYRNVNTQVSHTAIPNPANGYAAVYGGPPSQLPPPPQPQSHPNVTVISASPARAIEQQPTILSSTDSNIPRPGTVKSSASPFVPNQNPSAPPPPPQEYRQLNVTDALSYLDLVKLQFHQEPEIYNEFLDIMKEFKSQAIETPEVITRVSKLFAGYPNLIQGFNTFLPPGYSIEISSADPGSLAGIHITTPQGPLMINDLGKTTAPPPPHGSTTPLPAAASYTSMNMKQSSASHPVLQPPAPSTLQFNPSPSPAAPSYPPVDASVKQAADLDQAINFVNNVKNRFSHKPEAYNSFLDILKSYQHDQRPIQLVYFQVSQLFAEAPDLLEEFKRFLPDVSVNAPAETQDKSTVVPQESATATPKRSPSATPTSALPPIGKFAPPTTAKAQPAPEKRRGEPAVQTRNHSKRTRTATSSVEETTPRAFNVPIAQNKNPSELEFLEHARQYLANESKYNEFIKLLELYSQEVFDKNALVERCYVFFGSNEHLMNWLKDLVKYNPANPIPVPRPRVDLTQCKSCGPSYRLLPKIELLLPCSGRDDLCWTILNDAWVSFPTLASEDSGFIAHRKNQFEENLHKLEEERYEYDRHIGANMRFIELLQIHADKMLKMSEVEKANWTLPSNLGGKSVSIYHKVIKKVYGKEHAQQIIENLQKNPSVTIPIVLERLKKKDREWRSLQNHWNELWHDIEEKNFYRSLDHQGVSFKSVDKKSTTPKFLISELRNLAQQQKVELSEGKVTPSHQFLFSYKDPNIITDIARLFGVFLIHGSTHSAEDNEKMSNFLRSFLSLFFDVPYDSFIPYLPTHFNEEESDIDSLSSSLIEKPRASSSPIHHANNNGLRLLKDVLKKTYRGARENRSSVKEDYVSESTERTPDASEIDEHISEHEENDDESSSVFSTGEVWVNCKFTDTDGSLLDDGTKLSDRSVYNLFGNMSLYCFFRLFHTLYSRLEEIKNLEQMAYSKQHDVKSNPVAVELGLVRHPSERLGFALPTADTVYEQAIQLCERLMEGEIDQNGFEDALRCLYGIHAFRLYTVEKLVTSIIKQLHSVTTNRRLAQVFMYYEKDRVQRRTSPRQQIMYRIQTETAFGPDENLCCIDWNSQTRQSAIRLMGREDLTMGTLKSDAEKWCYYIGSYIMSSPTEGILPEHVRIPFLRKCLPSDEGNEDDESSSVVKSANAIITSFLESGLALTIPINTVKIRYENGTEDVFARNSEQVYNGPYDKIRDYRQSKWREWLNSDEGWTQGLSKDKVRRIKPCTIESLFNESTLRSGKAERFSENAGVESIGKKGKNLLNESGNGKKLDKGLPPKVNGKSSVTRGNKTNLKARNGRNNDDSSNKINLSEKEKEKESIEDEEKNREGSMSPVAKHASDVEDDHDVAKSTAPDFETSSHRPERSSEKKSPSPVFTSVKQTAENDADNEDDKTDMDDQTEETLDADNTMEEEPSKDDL

[3] = target: B3; assay: as above

Binder | binding result [1] | binding result [2] | binding result (Pst1) | binding result [3]
B1 | binds | binds | binds | –
B2 | – | binds | – | binds
B3 | binds | binds | binds | –
